The source of these data is paper PMC2770678 (Nucleic Acids Research, 2009).

Usually Kd stands for the constant that tells how readily two partners part at equilibrium.

The assay addresses T1, P. furiosus AP endonuclease (PfuAPE), PF0258 gene product, His-tagged recombinant (Pyrococcus furiosus, UniProt Q8U437 1-281).
T1 sequence (looked up): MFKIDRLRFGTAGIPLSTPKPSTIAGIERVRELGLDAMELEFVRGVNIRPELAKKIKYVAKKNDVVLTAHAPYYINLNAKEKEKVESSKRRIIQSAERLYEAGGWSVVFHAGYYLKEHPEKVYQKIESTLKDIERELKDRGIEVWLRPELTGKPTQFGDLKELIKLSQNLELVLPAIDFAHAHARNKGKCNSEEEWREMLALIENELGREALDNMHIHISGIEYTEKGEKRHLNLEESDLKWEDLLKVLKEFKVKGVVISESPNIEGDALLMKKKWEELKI
Kind of assay: SPR.

B1: P. furiosus proliferating cell nuclear antigen (PfuPCNA), recombinant wild type (natural protein, Pyrococcus furiosus, UniProt O73947 1-249, looked up)
chain: MPFEIVFEGAKEFAQLIDTASKLIDEAAFKVTEDGISMRAMDPSRVVLIDLNLPSSIFSKYEVVEPETIGVNMDHLKKILKRGKAKDTLILKKGEENFLEITIQGTATRTFRVPLIDVEEMEVDLPELPFTAKVVVLGEVLKDAVKDASLVSDSIKFIARENEFIMKAEGETQEVEIKLTLEDEGLLDIEVQEETKSAYGVSYLSDMVKGLGKADEVTIKFGNEMPMQMEYYIRDEGRLTFLLAPRVEE
For B1, the Kd is 1 µM.
